Target: streptavidin (UniProt P22629)
Experiment: recovery of cells on streptavidin coated magnetic beads (Dynal)

Sequence of streptavidin (P22629 37-163 limits assumed): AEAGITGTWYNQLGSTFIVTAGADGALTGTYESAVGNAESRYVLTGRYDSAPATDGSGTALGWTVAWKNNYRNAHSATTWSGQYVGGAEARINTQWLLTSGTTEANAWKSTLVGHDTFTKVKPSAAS

## Ramos IgM (unselected / wild-type Ramos cells, surface and secreted IgM) (antibody)
  proportion of cells which bind to the beads: 0.02%
